Assay results reported in patent US20090203886A1 (OSAKA UNIVERSITY, published 2009).
Substitutions are numbered along the chain they refer to. One block for each molecule: values may come before it.

Tests used:
human CD20 antigen [1] = molecular target: T1, human CD20 antigen (human, UniProt P11836 1-297); assay: cell-based or functional assay
T1 sequence (looked up): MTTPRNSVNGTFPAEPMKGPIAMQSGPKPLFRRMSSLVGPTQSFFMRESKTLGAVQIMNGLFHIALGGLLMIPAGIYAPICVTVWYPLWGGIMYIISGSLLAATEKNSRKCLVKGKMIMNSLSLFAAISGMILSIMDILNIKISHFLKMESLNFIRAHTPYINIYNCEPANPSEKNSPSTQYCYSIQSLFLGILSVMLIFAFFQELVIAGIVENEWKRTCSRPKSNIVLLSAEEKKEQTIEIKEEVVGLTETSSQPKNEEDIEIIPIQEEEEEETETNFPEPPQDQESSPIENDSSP

human CD20 antigen [2] = molecular target: T1, human CD20 antigen; assay: Scatchard analysis on Raji cells, FITC secondary antibody fluorescence (Example 2)
Protocol: The mixture was shaken for one hour at room temperature while shielding against light and primary antibodies binding to cells were detected. After the reaction, the mixture was centrifuged at 3,000 rpm for three minutes and the cells were recovered. The cells were suspended in 200 μl of PBS to remove unreacted FITC-labeled anti murine IgG (H&L) antibody remaining on the cell surface and then centrifuged at 3,000 rpm for three minutes to remove the supernatant. This operation was repeated twice.
After the detection step, the image was digitized using image analysis software Image Quant (Amersham Bioscience) and analyzed using Excel (Microsoft). Background values for the plate, the PBS solution and FITC-labeled secondary antibody displaying non-specific binding to cells were determined. Then a value for the reaction only between the cells and the FITC-labeled secondary antibodies was obtained. Average values for those four points were subtracted from the fluorescent intensity value for each sample in order to obtain the amount of fluorescence of cell-conjugated FITC-labeled secondary antibody. A standard curve was prepared by measuring the amount of fluorescence at various concentrations of control cell-conjugated FITC-labeled secondary antibodies. Thus the amount of cell-conjugated secondary antibody (number of moles or weight) was calculated. The amount of cell-conjugated primary antibody was calculated assuming that each primary antibody and the FITC-labeled secondary antibody react at a ratio of 1:2. Primary antibody in suspension was calculated by subtracting the cell-conjugated amount from the added amount. When calculating the antibody concentration as a molar concentration, the molecular weight of the monoclonal was taken to be 150,000.
Scatchard analysis was used to calculate the antigen number and dissociation constant (Kd value) refer to Scatchard, G.; Ann. N.Y. Acad.

human CD20 antigen [3] = molecular target: T1, human CD20 antigen; assay: cell-based or functional assay; remark: listed apart in the source
human CD20 antigen [4] = molecular target: T1, human CD20 antigen; assay: cell-based or functional assay; remark: listed apart in the source

B1: 1K1422 murine anti CD20 monoclonal antibody (antibody, V domains shown)
VH: QVQLQQPGAELVKPGASVKMSCRASGYTFTNYNMHWIKQTPGQGLEWIGAIYPGSGDTSYNRKFKGKATLTADTSSSTAYMQFSSLTSADSAVYYCARFTYYYGGTYGAMDYWGQGTSVTVSL
VL: QIVLTQSPPIMSASLGEEITLTCSASSRVSYMLWYQQKSGTSPKLLIYSTSNLASGVPSRFSGSGSGTFYSLTISSVEAEDAADYYCHQWTSNPCTFGGGTKLEIK
notes: also called m1422
Cell growth inhibiting test on Raji cells, Absorption (492 nm) (human CD20 antigen [3]): 1.77 absorbance 492 nm | Capacity to Induce Apoptosis (Raji cells) (human CD20 antigen [4]): 130 | Kd (human CD20 antigen [2]): 3.39 nM

B2: 1K0924 murine anti CD20 monoclonal antibody (antibody, mouse IgG2b, V domains shown)
VH: QVQLQQPGAELVKPGASVKMSCKASGYTFTSYNIHWVKQTPGQGLEWIGAIYPGNGDTSYNQKFKGKATLTSDKSSSTAYMQLSSLTSEDSAVYYCARMSTMITGFDYWGQGTTLTVSS
VL: QIVLSQSPAILSASPGEKVTMTCRASSSVSYMHWYQQRPGSSPKPWIYATSNLASGVPARFSGSGSGTSYYFTISRVEAEDAATYYCQQWNSNPPTHGGGTKLEIK
notes: also called m0924
Capacity to Induce Apoptosis (Raji cells) (human CD20 antigen [4]): 60 | Kd (human CD20 antigen [2]): 1.35 nM

B4: 1K1402 murine anti CD20 monoclonal antibody (antibody, V domains shown)
VH: QVQLQQPGAELVKPGASVKMSCKASGFTFTSYNMHWVKQTPGQGLEWIGGIYPGNGDTSYNQKFKGKATLTADKSSSTAYMQLSSLTSEDSAVYYCARFYYYGSMGAMDYWGQGTSVTVSS
VL: B2 VL with R38K, Y71S, F72L, S75T, N91T, S92F, H97F, G99A, I105L
notes: also called m1402
Cell growth inhibiting test on Raji cells, Absorption (492 nm) (human CD20 antigen [3]): 2.54 absorbance 492 nm | Capacity to Induce Apoptosis (Raji cells) (human CD20 antigen [4]): 30 | Kd (human CD20 antigen [2]): 0.78 nM

More lines, now with the values ahead:

Cell growth inhibiting test on Raji cells, Absorption (492 nm) (absorbance 492 nm) (human CD20 antigen [1]): 1.76 | Kd (human CD20 antigen [2]): 6.79 nM
Molecule: 2B8 murine anti CD20 antibody (positive control)

Cell growth inhibiting test on Raji cells, Absorption (492 nm) (human CD20 antigen [3]): 2.33 absorbance 492 nm | Capacity to Induce Apoptosis (Raji cells) (human CD20 antigen [4]): 50 | Kd (human CD20 antigen [2]): 0.84 nM
B3: 1K1712 murine anti CD20 monoclonal antibody (antibody, V domains shown)
VH: QVQLQQPGAELVKPGASVKMSCKASGFTFTSYNLHWVKQTPGQGLEWIGAIYPGSGDTSYNQQFKGKATLTADKSSNTAYMQLNSLTSEDSAVYCCARSAMISTGNWYFDYWGQGTTLTVSS
VL: B2 VL with H33D, R38K, Y71S, F72L, A82T, N91T, S92F, H97F, G99S
notes: also called m1712

Cell growth inhibiting test on Raji cells, Absorption (492 nm) (human CD20 antigen [3]): 2.24 absorbance 492 nm | Capacity to Induce Apoptosis (Raji cells) (human CD20 antigen [4]): 50 | Kd (human CD20 antigen [2]): 0.54 nM
B5: 1K1736 murine anti CD20 monoclonal antibody (antibody, V domains shown)
VH: QVQLQQPGAELVKPGASVKMSCKASGYTFTTYNLHWVKQTPGQGLEWIGGIYPGNGDTSYNQKFKVKATLTADKSSNTAYMQLSSLTSEDSAVYYCARWIYYGNYEGTLDYWGQGTSVTVSS
VL: B2 VL with A13S, H33L, R38K, K44E, S64G, Y71S, F72L, N91T, S92F, H97F
